Assay results reported in patent US20110287023A1 (AstraZeneca / MedImmune, published 2011).

Columns and labels:
[1] = biological target: T1, HMG1 B Box peptide amino acids 91-169; test: ELISA, HMG1 B Box peptide 91-169 coated at 10 ug/ml, antibody titrated, OD 450
T1 construct: also called HMG1 peptide 91-169
T1 peptide: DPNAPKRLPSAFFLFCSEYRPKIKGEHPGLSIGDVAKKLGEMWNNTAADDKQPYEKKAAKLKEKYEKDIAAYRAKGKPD
Method in brief: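 Plates blocked with 4% milk/PBS, or biotinylated peptides captured on avidin wells after 1% BSA blocking (30 min RT). Human anti-HMG1 antibodies titrated or serially diluted from 10 μg/ml, detected with anti-human IgG-HRP and TMB substrate, absorbance at 450 nm.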

[2] = biological target: T2, HMG2 coated on ELISA plates (Bos taurus (Bovine), UniProt P40673 2-209); test: direct ELISA, HMGB2 coated at 5 ug/mL, antibody at 10 ug/mL, anti-human kappa/lambda-HRP, OD 490
T2 construct: also called HMGB2; HMBG2
T2 sequence: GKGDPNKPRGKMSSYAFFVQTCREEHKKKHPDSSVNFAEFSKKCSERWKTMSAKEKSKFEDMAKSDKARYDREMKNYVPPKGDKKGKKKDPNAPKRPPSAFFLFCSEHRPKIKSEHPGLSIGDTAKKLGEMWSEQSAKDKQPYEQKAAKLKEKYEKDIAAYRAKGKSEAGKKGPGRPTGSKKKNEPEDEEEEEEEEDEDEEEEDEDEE
Experimental: Binding to HMG1 vs. HMG2: Ultra high-binding ELISA plates (ThermoLab systems, #3855) were coated with either 5 ug/mL of Calf thymus HMGB1 or HMBG2 diluted in 10 mM Phosphate buffered saline (PBS), pH 7.2 and incubate overnight at 4 degrees. The plates were washed twice with Ca and Mg free PBS and 100 microliters of anti-HMGB1 antibody diluted in 10 mM PBS, pH 7.2+1% bovine serum albumin (BSA) to a final concentration of 10 ug/mL was added to each well and the plates were incubated 1 hour at room temperature. The wells were washed three times with 100 μl of PBS, pH 7.2. HRP labeled goat-anti-human IgG Kappa-chain (KPL, #14-10-10) and goat-anti-human IgG Lambda-chain (KPL, #14-10-11) were diluted in 10 mM PBS+1% BSA 1:1000 and 100 μl were added to each well and incubated for 1 hour at room temperature. The wells were then washed three times with 100 μl of PBS, pH 7.2. OPD substrate (Pierce chemical company, #34006) was prepared following the manufacturers instructions and 100 μl of prepared substrate was added to each well and the plates incubated at room temperature in the dark for 20-30 minutes. The reaction was stopped with the addition of 100 μl of 2M H₂SO₄, and the plates read on a plate reader at a wavelength of 490 nm.

[3] = biological target: T3, activated HMG1 from LPS stimulated THP-1 cells (human, UniProt P09429 1-215); test: cell-based or functional assay
T3 sequence (looked up): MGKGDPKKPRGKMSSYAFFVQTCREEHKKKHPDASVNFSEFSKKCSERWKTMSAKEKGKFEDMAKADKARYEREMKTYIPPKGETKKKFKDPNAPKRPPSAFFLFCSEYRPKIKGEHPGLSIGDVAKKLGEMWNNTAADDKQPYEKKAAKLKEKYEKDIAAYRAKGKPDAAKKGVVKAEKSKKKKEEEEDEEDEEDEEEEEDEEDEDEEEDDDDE

[4] = biological target: T1, HMG1 B Box peptide amino acids 91-169; test: ELISA, HMG1 B Box peptide 91-169 coated at 10 ug/ml, antibody titrated, anti-human IgG-HRP, OD 450
Experimental: The plate was then blocked with 4% milk powder dissolved in PBS at 37° C. for 1 hour. The blocking solution was removed and replaced with human anti-HMG1 antibodies at various concentrations (see FIGS. 5A-B). […] HRP activity was detected with Sureblue HRP substrate (KPL). Plates were read at 450 nm using a Kinetic Microplate Reader (Molecular Devices). […] After washing and blocking with 1% BSA in PBS, the biotinylated peptides were individually added into the avidin coated wells and incubated for 30 min at room temperature. The serial diluted antibody G4, S16 and S6 at the initial concentration at 10 μg/ml were then transferred into the wells followed by adding mouse anti human IgG-HRP conjugate (Pierce). Detection was accomplished by adding 50 μl of tetramethylbenzidine (TMB) substrate (KPL) and the absorbance was read at 450 nm.

[5] = biological target: T4, HMG1 purified from calf (bovine) thymus (bovine, UniProt P10103 2-215); test: blocking ELISA: thymus HMGB1 pre-incubated with the antibody, then added to coated RAGE/Fc (blocked partner: RAGE/Fc); one bar per antibody, the antibody's concentration is not given
T4 construct: also called Calf thymus HMGB1; thymus HMG1
T4 sequence (looked up): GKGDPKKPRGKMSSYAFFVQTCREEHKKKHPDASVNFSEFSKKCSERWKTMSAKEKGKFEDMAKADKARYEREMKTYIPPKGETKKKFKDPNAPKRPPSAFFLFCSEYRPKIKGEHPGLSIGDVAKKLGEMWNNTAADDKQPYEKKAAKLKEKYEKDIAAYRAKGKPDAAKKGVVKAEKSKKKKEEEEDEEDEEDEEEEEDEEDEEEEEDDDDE
Experimental: HMG1 binding to RAGE-Ig by ELISA: 50 μl/well of RAGE-Fc fusion protein at 5 μg/ml in PBS was added to each well of an ELISA plate and incubated overnight at 4° C. The plate was then blocked with 200 μl of 5% milk at 37° C. for 1 hr and washed 3× with PBS/Tween. 50 μl/well of diluted HMGB1 solution. For dose curves, HMGB1 concentrations started at 4 ug/ml in PBS. For antibody blocking the HMGB1 was preincubated in another plate with human anti-HMG1 antibodies or buffer, then transferred to the RAGE-coated plate. The plates were then incubated at room temperature for 2 hours and washed 3×. To detect any HMG1 bound to the immobilized RAGE-Fc a mixture of biotinylated mouse anti-HMG1 mAbs (10D4, 4H11, 3E10 and 5C12) each at 1 ug/ml, total Ab: 4 ug/ml, were added to each well and the plate was incubated for 1 hour at room temperature. The plate was then washed and Strepavidin-HPR was added to each well and incubated 15 min. The plate was then washed 3× and blotted dry. 100 μl of TMB developing agent was added and the plate read at 650 nm. Values were calculated as percent of inhibition with HMG1 alone equal to 0% inhibition. The data in FIG. 9 and summarized in Table 1 represent the average of two separate experiments.

Binder | binding result [1] | binding result [2] | IC50 nm IL-6 Native HMGB [3] [nM] | binding result [4] | binding result [5]
human anti-HMG1 antibody S6 (antibody, V domains shown, full length IgG1 made from a human Fab phage clone; two paragraphs print 'S4' for the PTA-6143 deposit; also called ATCC PTA-6143) VH: EVQLLESGGGLVQPGGSLRLSCAASGFTFSWYDMSWVRQAPGKGLEWVSRISPSGGYTMYADSVKGRFTISRDNSKNTLYLQMNSLRAEDTAVYYCARLEVGATSGGTAFDIWGQGTMVTVSS VL: not shown | no binding (tested: 10 ug/ml (log 1.0)) | – | – | – | –
human anti-HMG1 antibody S16 (antibody, IgG1, V domains shown, full length IgG1 made from a human Fab phage clone; also called ATCC PTA-6259) VH: EVQLLESGGGLVQPGGSLRLSCAASGFTFSWYSMLWVRQAPGKGLEWVSYISPSGGFTNYADSVKGRFTISRDNSKNTLYLQMNSLRAEDTAVYYCARWDYNSGWYYDHWGQGTLVTVSS VL: DIQMTQSPDTLSLSPGERATLSCRASQSVNSRNLAWYQQKPGQAPRLLIYGASTRATGIPDRFSGSVSGTEFTLTISSLQPDDFATYYCQQYNSYFTFGQGTKLEIK | – | binds | 38.9 | binds | –
human anti-HMG1 antibody E11 (antibody, IgG1, V domains shown, full length IgG1 made from a human Fab phage clone) VH: EVQLLESGGGLVQPGGSLRLSCAASGFTFSRYQMNWVRQAPGKGLEWVSSISPSGGHTHYADSVKGRFTISRDNSKNTLYLQMNSLRAEDTAVYYCAKDGRQGKISTVDHWGQGTLVTVSS VL: DIQMTQSPGTLSLSPGERATLSCRASQSVRSNFLAWYQQKPGQAPRLLIYGASRRASGIPDRFSGSGFGADFTLSISRLEPEDFAVYYCQQYGSSPNTFGQGSRVEIK | no binding (tested: 10 ug/ml (log 1.0)) | binds | 1.73 | – | binds
human anti-HMG1 antibody G4 (antibody, IgG1, V domains shown, full length IgG1 made from a human Fab phage clone; also called ATCC PTA-6258) VH: EVQLLESGGGLVQPGGSLRLSCAASGFTFSWYDMTWVRQAPGKGLEWVSSISPSGGYTKYADSVKGRFTISRDNSKNTLYLQMNSLRAEDTAVYYCTTEFYDYLDVWGKGTTVTVSS VL: DIQMTQSPGTLSLSPGEGATLSCRASQSVSSTYLAWYQQKPGQAPRLLIYEASKRATGTPARFSGSGSGTDFTLSISSLEPEDFAVYYCQHRHNWPPQWTFGQGTKVEVK | – | – | – | binds | –
